Reference: patent US11932673

Legend:
trypsin [1] = test: Fab TRF, 10 ug/mL Fab
trypsin [2] = test: Fab TRF, 0.6 ug/mL Fab
trypsin [3] = test: Fab TRF, 2.4 ug/mL Fab
trypsin [4] = test: monoclonal phage TRF
β-galactosidase = test: monoclonal phage TRF
β-galactosidase, sequence (P00722 2-1024): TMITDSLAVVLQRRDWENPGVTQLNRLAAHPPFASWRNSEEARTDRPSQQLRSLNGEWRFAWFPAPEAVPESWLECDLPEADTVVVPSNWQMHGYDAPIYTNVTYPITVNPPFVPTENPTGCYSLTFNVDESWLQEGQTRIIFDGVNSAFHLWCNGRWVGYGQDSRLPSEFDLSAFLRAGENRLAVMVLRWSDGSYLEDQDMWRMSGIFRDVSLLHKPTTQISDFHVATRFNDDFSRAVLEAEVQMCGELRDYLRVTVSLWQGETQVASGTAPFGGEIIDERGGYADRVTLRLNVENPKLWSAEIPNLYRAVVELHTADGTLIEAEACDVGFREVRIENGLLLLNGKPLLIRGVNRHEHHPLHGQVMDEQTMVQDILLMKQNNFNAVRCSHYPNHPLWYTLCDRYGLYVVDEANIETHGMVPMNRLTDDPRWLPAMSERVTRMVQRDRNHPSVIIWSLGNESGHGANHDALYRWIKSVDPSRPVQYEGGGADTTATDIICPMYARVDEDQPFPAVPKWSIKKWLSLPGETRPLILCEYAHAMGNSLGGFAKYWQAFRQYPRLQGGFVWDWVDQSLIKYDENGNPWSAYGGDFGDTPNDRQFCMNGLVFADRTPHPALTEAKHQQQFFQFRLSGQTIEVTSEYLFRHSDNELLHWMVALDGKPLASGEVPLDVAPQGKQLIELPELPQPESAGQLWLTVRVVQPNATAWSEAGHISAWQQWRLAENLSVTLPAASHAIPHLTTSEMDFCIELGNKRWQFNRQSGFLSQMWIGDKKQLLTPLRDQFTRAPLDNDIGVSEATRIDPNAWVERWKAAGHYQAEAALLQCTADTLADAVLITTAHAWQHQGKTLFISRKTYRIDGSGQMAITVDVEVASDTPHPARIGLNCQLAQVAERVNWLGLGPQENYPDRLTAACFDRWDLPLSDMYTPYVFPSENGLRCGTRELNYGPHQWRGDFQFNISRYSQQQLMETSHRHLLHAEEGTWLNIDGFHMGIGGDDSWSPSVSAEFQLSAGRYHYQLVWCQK

B1: KB_A01 (scFv, V domains shown)
VH: EVQLVESGGGLVRPGGSLRLSCAASGFTFSSYAMSWVRQAPGKGLEWVSAISGSGGSTYYADSVKGRFTISRDNTKNSLYLQMTSLRADDTAFYYCVKDFGPGYGTGWFDYWGPGTLVTVSS
VL: YLNWYQQKPGKAPKLLIYAAEVCPRILMRCKQDSDCLAGCVCGPNGFCGGTSGVPSRFSGSRSGTEFTLTISSLQPEDFATYYCQKVDDYPLTFGGGTKVEIKR
- TRF signal (trypsin [1]): 55600
- TRF signal (trypsin [2]): 2390
- TRF signal (trypsin [3]): 16600
- Tryspin binding signal (FU) (trypsin [4]): 20200 FU

B2: KB_B11 (scFv, V domains shown)
VH: EVQLVESGGGLVRPGGSLRLSCAASGFTFSSYAMSWVRQAPGKGLEWVSAISGSGGSTYYADSVKGRFTISRDNTKNSLYLQMTSLRADDTAFYYCVKDFGPGYGTGWFDYWGPGTLVTVSS
VL: TQPPSVSEAPRQRVTITCGSRPCPRILMRCKQDSDCLAGCVCGPNGFCGSHNWYQQLPGSSPTTVIYEDNQRPSGVPDRFSGSIDRSSNSASLTISGLKTEDEADYYCQSYDSSNHRVVFGGGTKLTVLG
- Tryspin binding signal (FU) (trypsin [4]): 10300 FU

B3: KB_C07 (scFv, V domains shown)
VH: EVQLVESGGGLVRPGGSLRLSCAASGFTFSSYAMSWVRQAPGKGLEWVSAISGSGGSTYYADSVKGRFTISRDNTKNSLYLQMTSLRADDTAFYYCVKDFGPGYGTGWFDYWGPGTLVTVSS
VL: AVNWYQQLPGKAPKLLIYAAVGCPRILMRCKQDSDCLAGCVCGPNGFCGSASGVSDRFSGSKSGTSASLAISGLRSEDEADYYCASWDDSLRGYVFGTGTKVTVLG
- TRF signal (trypsin [1]): 276000
- TRF signal (trypsin [2]): 153000
- TRF signal (trypsin [3]): 247000
- Tryspin binding signal (FU) (trypsin [4]): 43300 FU

B4: KB_A12_B-gal_G05 (scFv, V domains shown)
VH: EVQLVESGGGLVRPGGSLRLSCAASGFTFSSYAMSWVRQAPGKGLEWVSAISGSGGSTYYADSVKGRFTISRDNTKNSLYLQMTSLRADDTAFYYCVKDFGPGYGTGWFDYWGPGTLVTVSS
VL: AVNWYQQLPGKAPKLLIYAAGRCLDTVNLRRRCKQDSDCLAGCVCGPNGFCGANSGVSDRFSAAKSGTSASLAINGLRSEDEADYYCAAWDDSLNGYVFGTGTKLTVLG
- TRF signal (β-galactosidase): 529000

B5: KB_B10 (scFv, V domains shown)
VH: EVQLVESGGGLVRPGGSLRLSCAASGFTFSSYAMSWVRQAPGKGLEWVSAISGSGGSTYYADSVKGRFTISRDNTKNSLYLQMTSLRADDTAFYYCVKDFGPGYGTGWFDYWGPGTLVTVSS
VL: QSVLTQLPSVSEAPRQRVTITCGRAMCPRILMRCKQDSDCLAGCVCGPNGFCGTGNWYQQHPGKAPKLIIFDVSKRPSGVPDRFSASKSGNTASLTISGLQAEDEADYYCNSYTSSNTWVFGGGTQLTVLG
- Tryspin binding signal (FU) (trypsin [4]): 9270 FU

B6: KB_A03 (scFv, V domains shown)
VH: EVQLVESGGGLVRPGGSLRLSCAASGFTFSSYAMSWVRQAPGKGLEWVSAISGSGGSTYYADSVKGRFTISRDNTKNSLYLQMTSLRADDTAFYYCVKDFGPGYGTGWFDYWGPGTLVTVSS
VL: AVNWYQQLPGKAPKLLINAADRCPRILMRCKQDSDCLAGCVCGPNGFCGTNSGVPDRFSGSSSGNTASLTITGAQAEDEADYYCNSRDSSGNNWVFGGGTKVTVLG
- Tryspin binding signal (FU) (trypsin [4]): 28700 FU

B7: KB_A12_B-gal_F02 (scFv, V domains shown)
VH: EVQLVESGGGLVRPGGSLRLSCAASGFTFSSYAMSWVRQAPGKGLEWVSAISGSGGSTYYADSVKGRFTISRDNTKNSLYLQMTSLRADDTAFYYCVKDFGPGYGTGWFDYWGPGTLVTVSS
VL: AVNWYQQLPGKAPKLLIYAAGRCRTTSTIRRRCKQDSDCLAGCVCGPNGFCGANSGVSDRFSAAKSGTSASLAINGLRSEDEADYYCAAWDDSLNGYVFGTGTKLTVLG
- TRF signal (β-galactosidase): 476000

B8: KB_B12 (scFv, V domains shown)
VH: EVQLVESGGGLVRPGGSLRLSCAASGFTFSSYAMSWVRQAPGKGLEWVSAISGSGGSTYYADSVKGRFTISRDNTKNSLYLQMTSLRADDTAFYYCVKDFGPGYGTGWFDYWGPGTLVTVSS
VL: TQPPSVSEAPRQRVTITCGERPCPRILMRCKQDSDCLAGCVCGPNGFCGANNWYQQLPGSSPTTVIYEDNQRPSGVPDRFSGSIDSSSNSASLTISGLKTEDEADYYCQSYDSSNQVFGGGTKVTVLG
- Tryspin binding signal (FU) (trypsin [4]): 17400 FU

B9: KB_A10 (scFv, V domains shown)
VH: EVQLVESGGGLVRPGGSLRLSCAASGFTFSSYAMSWVRQAPGKGLEWVSAISGSGGSTYYADSVKGRFTISRDNTKNSLYLQMTSLRADDTAFYYCVKDFGPGYGTGWFDYWGPGTLVTVSS
VL: AVNWYQQLPGKAPKLLIYAAGGCPRILMRCKQDSDCLAGCVCGPNGFCGSNSGVPDRFSGSKSGNTASLTISGLQSEDEADYYCAAWDDSLSGVVFGGGTQLTVLG
- TRF signal (trypsin [1]): 68700
- TRF signal (trypsin [2]): 14600
- TRF signal (trypsin [3]): 71900
- Tryspin binding signal (FU) (trypsin [4]): 38800 FU

B10: KB_B01 (scFv, V domains shown)
VH: EVQLVESGGGLVRPGGSLRLSCAASGFTFSSYAMSWVRQAPGKGLEWVSAISGSGGSTYYADSVKGRFTISRDNTKNSLYLQMTSLRADDTAFYYCVKDFGPGYGTGWFDYWGPGTLVTVSS
VL: AVNWYQQLPGKAPKLLIYAAAGCPRILMRCKQDSDCLAGCVCGPNGFCGTRSGVSDRFSGSKSGTSASLAISGLRSEDEADYYCAAWDDSLRAYVFGTGTKLTVLG
- TRF signal (trypsin [1]): 257000
- TRF signal (trypsin [2]): 54800
- TRF signal (trypsin [3]): 153000
- Tryspin binding signal (FU) (trypsin [4]): 57700 FU

B11: KB_A09 (scFv, V domains shown)
VH: EVQLVESGGGLVRPGGSLRLSCAASGFTFSSYAMSWVRQAPGKGLEWVSAISGSGGSTYYADSVKGRFTISRDNTKNSLYLQMTSLRADDTAFYYCVKDFGPGYGTGWFDYWGPGTLVTVSS
VL: AVNWYQQLPGKAPKLLIYAAERCPRILMRCKQDSDCLAGCVCGPNGFCGTPSGVPDRFSGSIDTFSNSASLTISGLKTEDEADYYCQSYDSSHHWVFGGGTKLTVLG
- TRF signal (trypsin [1]): 161000
- TRF signal (trypsin [2]): 21000
- TRF signal (trypsin [3]): 84100
- Tryspin binding signal (FU) (trypsin [4]): 57700 FU

B12: KB_C08 (scFv, V domains shown)
VH: EVQLVESGGGLVRPGGSLRLSCAASGFTFSSYAMSWVRQAPGKGLEWVSAISGSGGSTYYADSVKGRFTISRDNTKNSLYLQMTSLRADDTAFYYCVKDFGPGYGTGWFDYWGPGTLVTVSS
VL: AVNWYQQLPGKAPKLLIYAAAVCPRILMRCKQDSDCLAGCVCGPNGFCGTRSGIPERFSGSKSGTSAFLAISGLRSEDEADYYCAAWDDSLSGVVFGGGTKLTVLG
- TRF signal (trypsin [1]): 183000
- TRF signal (trypsin [2]): 51100
- TRF signal (trypsin [3]): 131000
- Tryspin binding signal (FU) (trypsin [4]): 76800 FU

B13: KB_C09 (scFv, V domains shown)
VH: EVQLVESGGGLVRPGGSLRLSCAASGFTFSSYAMSWVRQAPGKGLEWVSAISGSGGSTYYADSVKGRFTISRDNTKNSLYLQMTSLRADDTAFYYCVKDFGPGYGTGWFDYWGPGTLVTVSS
VL: AVNWYQQLPGKAPKLLIYAAGRCPRILMRCKQDSDCLAGCVCGPNGFCGGGSGVPDRFSGSIDSSSNSASLTISGLRAEDEADYYCQSYDSSNHWVFGGGTKLTVLG
- TRF signal (trypsin [1]): 289000
- TRF signal (trypsin [2]): 46800
- TRF signal (trypsin [3]): 205000
- Tryspin binding signal (FU) (trypsin [4]): 89400 FU

B14: KB_A05 (scFv, V domains shown)
VH: EVQLVESGGGLVRPGGSLRLSCAASGFTFSSYAMSWVRQAPGKGLEWVSAISGSGGSTYYADSVKGRFTISRDNTKNSLYLQMTSLRADDTAFYYCVKDFGPGYGTGWFDYWGPGTLVTVSS
VL: AVNWYQQLPGKAPKLLIYAADKCPRILMRCKQDSDCLAGCVCGPNGFCGGGSGIPERFSGSKSGTSASLAISGLRSEDEADYYCATWDDNLNGVVFGGGTKLTVLG
- TRF signal (trypsin [1]): 218000
- TRF signal (trypsin [2]): 46700
- TRF signal (trypsin [3]): 65400
- Tryspin binding signal (FU) (trypsin [4]): 121000 FU

B15: KB_B02 (scFv, V domains shown)
VH: EVQLVESGGGLVRPGGSLRLSCAASGFTFSSYAMSWVRQAPGKGLEWVSAISGSGGSTYYADSVKGRFTISRDNTKNSLYLQMTSLRADDTAFYYCVKDFGPGYGTGWFDYWGPGTLVTVSS
VL: AVNWYQQLPGKAPKLLIYAAVGCPRILMRCKQDSDCLAGCVCGPNGFCGTGSGIPERFSGSKSGNTASLTISGLQAEDEGDYYCAAWDDSLSGPVFGGGTKLTVLG
- TRF signal (trypsin [1]): 56600
- TRF signal (trypsin [2]): 2340
- TRF signal (trypsin [3]): 15900
- Tryspin binding signal (FU) (trypsin [4]): 116000 FU

B16: KB_A02 (scFv, V domains shown)
VH: EVQLVESGGGLVRPGGSLRLSCAASGFTFSSYAMSWVRQAPGKGLEWVSAISGSGGSTYYADSVKGRFTISRDNTKNSLYLQMTSLRADDTAFYYCVKDFGPGYGTGWFDYWGPGTLVTVSS
VL: AVNWYQQLPGKAPKLLIYAAAKCPRILMRCKQDSDCLAGCVCGPNGFCGGASGVSDRFSGSIDSSSNSASLTISGLKPEDEGDYYCQSYDSSNRWVFGGGTKVTVLG
- TRF signal (trypsin [1]): 255000
- TRF signal (trypsin [2]): 93800
- TRF signal (trypsin [3]): 221000
- Tryspin binding signal (FU) (trypsin [4]): 183000 FU

B17: KB_C10 (scFv, V domains shown)
VH: EVQLVESGGGLVRPGGSLRLSCAASGFTFSSYAMSWVRQAPGKGLEWVSAISGSGGSTYYADSVKGRFTISRDNTKNSLYLQMTSLRADDTAFYYCVKDFGPGYGTGWFDYWGPGTLVTVSS
VL: AVNWYQQLPGKAPKLLIYAAGPCPRILMRCKQDSDCLAGCVCGPNGFCGADSGVSDRFSGSKSGTSASLAITGLQAEDEGDYYCAAWDDSLNGLVFGGGTKVTVLG
- TRF signal (trypsin [1]): 238000
- TRF signal (trypsin [2]): 41700
- TRF signal (trypsin [3]): 146000
- Tryspin binding signal (FU) (trypsin [4]): 119000 FU

B18: KB_A06 (scFv, V domains shown)
VH: EVQLVESGGGLVRPGGSLRLSCAASGFTFSSYAMSWVRQAPGKGLEWVSAISGSGGSTYYADSVKGRFTISRDNTKNSLYLQMTSLRADDTAFYYCVKDFGPGYGTGWFDYWGPGTLVTVSS
VL: AVNWYQQLPGKAPKLLIYAAVRCPRILMRCKQDSDCLAGCVCGPNGFCGTPSGIPERFSGSIDRSTNSASLTISGLKTEDEADYYCQSYDSSNLNWVFGGGTKLTVLG
- TRF signal (trypsin [1]): 242000
- TRF signal (trypsin [2]): 108000
- TRF signal (trypsin [3]): 212000
- Tryspin binding signal (FU) (trypsin [4]): 24400 FU

B19: KB_A11 (scFv, V domains shown)
VH: EVQLVESGGGLVRPGGSLRLSCAASGFTFSSYAMSWVRQAPGKGLEWVSAISGSGGSTYYADSVKGRFTISRDNTKNSLYLQMTSLRADDTAFYYCVKDFGPGYGTGWFDYWGPGTLVTVSS
VL: YLNWYQQKPGKAPKLLIYAAEICPRILMRCKQDSDCLAGCVCGPNGFCGPSSGIPARFSGSGYGTDFTLTINNIESEDAAYYFCLQHDNFPYTFGQGTKVEIKR
- TRF signal (trypsin [1]): 212000
- TRF signal (trypsin [2]): 48900
- TRF signal (trypsin [3]): 141000
- Tryspin binding signal (FU) (trypsin [4]): 16400 FU
